Measurements from article PMC10037447.
“And” between values parts separate entries of the source, which are not always exact repeats. Equal values may be shown once.

Target: F-type ATP synthase from bovine heart mitochondria (Bos taurus (purified from bovine heart))
Assay: native gel or EMSA; Blue-Native PAGE (3-12% Bis-Tris mini-gels) of F-type ATP synthase re-extracted with 0.5% LMNG from LAiR proteoliposomes (bovine heart lipids) at time points over 5 days of storage on ice at 4 °C

F-type ATP synthase from bovine heart mitochondria (complex)
stoichiometry N: 2 and 4
